Consider 13 molecules from patent US20250109203A1.

The target in this test is human γδ TCR (Vγ9Vδ2) on human Vδ2+ γδ T cells (human) (UniProt A0JD36). Kind of test: flow cytometry on expanded human Vδ2+ γδ T cells, nonlinear fit.

B1: hu1D7v11 VHH-hIgG1 Fc-NNT (monomeric) (VHH)
VHH: EVQLLESGGGEVQPGGSLRLSCVASRGKISQYRMGWYRQAPGKGLEWVAAISNTGDAAEYVDSVKGRFTISRDSTKNAVYLQMSSLRAEDTAVYKCNSVEDILAWGQGTLVTVKP
Broadly, the Kd is a measure of binding affinity in units of concentration. Read a high Kd as a looser complex. As to B1, the dissociation constant (Kd) was determined as 42.2 nM.

B2: hu1D7v17 VHH-hIgG1 Fc-NNT (monomeric) (VHH)
VHH: EVQLLESGGGEVQPGGSLRLSCVASRGKISQYRMGWYRQAPGKGLEWVAHISNTGDAAYYVDSVKGRFTISRDSTKNAVYLQMSSLRAEDTAVYKCNSVEDILAWGQGTLVTVKP
B2: the Kd was 20.1 nM.

B3: hu1D7v16 VHH-hIgG1 Fc-NNT (monomeric) (VHH)
VHH: EVQLLESGGGEVQPGGSLRLSCVASRGKISQYRMGWYRQAPGKGLEWVAHISNTGDATEYVDSVKGRFTISRDSTKNAVYLQMSSLRAEDTAVYKCNSVEDILAWGQGTLVTVKP
In the case of B3, the Kd amounted to 24.6 nM.

B4: hu1D7v15 VHH-hIgG1 Fc-NNT (monomeric) (VHH)
VHH: EVQLLESGGGEVQPGGSLRLSCVASRGKISQYRMGWYRQAPGKGLEWVAHISNTGDSAEYVDSVKGRFTISRDSTKNAVYLQMSSLRAEDTAVYKCNSVEDILAWGQGTLVTVKP
In turn, B4 had an equilibrium dissociation constant (Kd) of 16.4 nM.

B5: hu1D7v23 VHH-hIgG1 Fc-NNT (monomeric) (VHH)
VHH: EVQLLESGGGEVQPGGSLRLSCVASRGKISQYRMGWYRQAPGKGLEWVAHISNTGDAAEYVDSVKGRFTISRDSTKNALYLQMSSLRAEDTAVYKCNSVEDILAWGQGTLVTVKP
Regarding B5, the equilibrium dissociation constant (Kd) amounted to 18.1 nM. The Kd values of the last two molecules are within 1.5-fold of each other.

B6: hu1D7v1 VHH-hIgG1 Fc-NNT (monomeric) (VHH)
VHH: EVQLLESGGGEVQPGGSLRLSCVASRGKISQYRMGWYRQAPGKGLEWVAHISNTGDAAEYVDSVKGRFTISRDSTKNAVYLQMSSLRAEDTAVYKCNSVEDILAWGQGTLVTVKP
In turn, B6 gave a Kd of 5.23 nM.

B7: hu1D7v13 VHH-hIgG1 Fc-NNT (monomeric) (VHH)
VHH: EVQLLESGGGEVQPGGSLRLSCVASRGKISQYRMGWYRQAPGKGLEWVAHISNSGDAAEYVDSVKGRFTISRDSTKNAVYLQMSSLRAEDTAVYKCNSVEDILAWGQGTLVTVKP
B7 displayed an equilibrium dissociation constant (Kd) of 18.2 nM.

B8: hu1D7v24 VHH-hIgG1 Fc-NNT (monomeric) (VHH)
VHH: EVQLLESGGGEVQPGGSLRLSCVASRGKISQYRMGWYRQAPGKGLEWVAHISNTGDAAEYVDSVKGRFTISRDSTKNAVYLQMSSLRAEDTAVYKCNAVEDILAWGQGTLVTVKP
For the molecule B8, the Kd amounted to 9440 nM. This Kd lies about 520-fold higher than the previous one.

B9: hu1D7v19 VHH-hIgG1 Fc-NNT (monomeric) (VHH)
VHH: EVQLLESGGGEVQPGGSLRLSCVASRGKISQYRMGWYRQAPGKGLEWVAHISNTGDAAEYVDSVKDRFTISRDSTKNAVYLQMSSLRAEDTAVYKCNSVEDILAWGQGTLVTVKP
The molecule B9 displayed a Kd of 26.7 nM. Compared with the last molecule, the Kd is about 350-fold lower.

B10: hu1D7v14 VHH-hIgG1 Fc-NNT (monomeric) (VHH)
VHH: EVQLLESGGGEVQPGGSLRLSCVASRGKISQYRMGWYRQAPGKGLEWVAHISNTGGAAEYVDSVKGRFTISRDSTKNAVYLQMSSLRAEDTAVYKCNSVEDILAWGQGTLVTVKP
As to B10, the dissociation constant Kd amounted to 21.5 nM.

B11: hu1D7v18 VHH-hIgG1 Fc-NNT (monomeric) (VHH)
VHH: EVQLLESGGGEVQPGGSLRLSCVASRGKISQYRMGWYRQAPGKGLEWVAHISNTGDAAEYAESVKGRFTISRDSTKNAVYLQMSSLRAEDTAVYKCNSVEDILAWGQGTLVTVKP
B11 displayed a dissociation constant (Kd) of 42.5 nM. Against the preceding molecule, the Kd is about 2-fold higher.

B12: hu1D7v22 VHH-hIgG1 Fc-NNT (monomeric) (VHH)
VHH: EVQLLESGGGEVQPGGSLRLSCVASRGKISQYRMGWYRQAPGKGLEWVAHISNTGDAAEYVDSVKGRFTISRDSTKNTVYLQMSSLRAEDTAVYKCNSVEDILAWGQGTLVTVKP
Molecule B12 yielded a Kd of 29.1 nM.

B13: 1D7 VHH-hIgG1 Fc-NNT (monomeric, parental) (VHH)
VHH: QVQLVQSGGGLVQPGGSLRLSCVASRGKISQYRMGWYRQAPGKQRELVAHISNTGDAAEYVDSVKGRFTISRDSTKNAVYLQMNSLKPEDTAVYKCNSVEDILAWGQGTQVTVKP
B13 gave a Kd of 6.09 nM.
